Test results published in the supplement of paper PMC7125110.
± gives the standard error. For some of these results: Fewer inactive variants are shown than the library holds.

B1: glmS ribozyme (parent)
chain: AUAAAAGCGCCAGAACUACAGAAAUGUAGUUGACGAGGAGGAGGUUUAUCGAAUUUUCGGCGGAUGCCUCCAAA

Experiments:
Settings in all cases: with glucosamine-6-phosphate
glucosamine-6-phosphate [1] = variants of: B1; assay: kcat; higher = faster cleavage; RNA array
Procedure, shortened: (§1)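 Using a hybridised Cy3 probe at 37 °C, barcoded ribozyme variants transcribed in situ by E. coli RNA polymerase on sequenced MiSeq chips were monitored across tiles imaged over ~14 h. The flow contained glucosamine-6-phosphate from 40 μM to 10 mM in HEPES/KCl/Mg(OAc)2 buffer. Signals were normalised to baseline and to non-cleaving reference variants before per-tile medians were fit to one- or two-exponential decays to yield kobs. Weighted Michaelis–Menten fits across concentrations gave kcat and KM.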

glucosamine-6-phosphate [2] = variants of: B1; assay: self-cleavage kobs at 2500 uM GlcN6P; higher = faster cleavage; RNA array
Procedure, shortened: as §1

glucosamine-6-phosphate [3] = variants of: B1; assay: KM; higher = weaker cofactor use; RNA array
Procedure, shortened: as §1

glucosamine-6-phosphate [4] = variants of: B1; assay: self-cleavage kobs at 40 uM GlcN6P; higher = faster cleavage; RNA array
Procedure, shortened: as §1

glucosamine-6-phosphate [5] = variants of: B1; assay: self-cleavage kobs at 160 uM GlcN6P; higher = faster cleavage; RNA array
Procedure, shortened: as §1

glucosamine-6-phosphate [6] = variants of: B1; assay: self-cleavage kobs at 640 uM GlcN6P; higher = faster cleavage; RNA array
Procedure, shortened: as §1

glucosamine-6-phosphate [7] = variants of: B1; assay: self-cleavage kobs at 10000 uM GlcN6P; higher = faster cleavage; RNA array
Procedure, shortened: as §1

Row | Variant | kcat (glucosamine-6-phosphate [1]) [s⁻¹] | self-cleavage kobs at 2500 uM GlcN6P (glucosamine-6-phosphate [2]) [s⁻¹] | KM (glucosamine-6-phosphate [3]) [µM] | self-cleavage kobs at 40 uM GlcN6P (glucosamine-6-phosphate [4]) [s⁻¹] | self-cleavage kobs at 160 uM GlcN6P (glucosamine-6-phosphate [5]) [s⁻¹] | self-cleavage kobs at 640 uM GlcN6P (glucosamine-6-phosphate [6]) [s⁻¹] | self-cleavage kobs at 10000 uM GlcN6P (glucosamine-6-phosphate [7]) [s⁻¹]
1 | A20G G37C C58A | 1.09e-05 ± 2.8e-06 | – | – | – | – | – | –
2 | G29U C58U C68U | 3.99e-05 ± 1.3e-05 | 5.55e-05 ± 2.2e-05 | – | – | – | – | –
3 | G29U U54A | 0.00792 ± 0.0027 | 0.00361 ± 0.0006 | 2360 ± 1100 | 0.000181 ± 1.9e-05 | 0.000284 ± 7.7e-05 | 0.00184 ± 0.0003 | 0.0068 ± 0.00083
4 | G29U U54C | 0.00486 ± 0.0013 | 0.00249 ± 0.00049 | 1540 ± 590 | 0.000157 ± 3.1e-05 | 0.000421 ± 6.8e-05 | 0.00146 ± 0.00023 | 0.00596 ± 0.0013
5 | G29U G37A | 0.000503 ± 4.3e-05 | 0.000188 ± 3.4e-05 | 3470 ± 490 | – | – | 8.23e-05 ± 1.1e-05 | 0.000383 ± 4.6e-05
6 | G29C C70A | 4.11e-05 ± 9.8e-06 | 4.33e-05 ± 9.8e-06 | – | – | 2.35e-05 ± 1.1e-05 | 5.19e-05 ± 9.6e-06 | –
7 | U30C C67G C68A | 1.14e-05 ± 4e-06 | – | – | < 1e-05 | – | – | < 1e-05
8 | U30A C70G | 8.36e-05 ± 9.7e-06 | 0.000108 ± 2.6e-05 | – | – | 6.81e-05 ± 1.8e-05 | 6.45e-05 ± 1.5e-05 | 8.03e-05 ± 1.3e-05
9 | G29C C58U | 5.79e-05 ± 8.3e-06 | 2.68e-05 ± 9.9e-06 | – | < 1e-05 | – | – | 4.86e-05 ± 8e-06
10 | U30A A42U | 1.63e-05 ± 1.2e-07 | – | 588 ± 46 | – | < 1e-05 | – | 1.54e-05 ± 7.6e-06
11 | C16U G60A | 1.69e-05 ± 4.6e-06 | 2.66e-05 ± 1.3e-05 | – | < 1e-05 | – | – | –
12 | G29A C67U C71G | 4.81e-05 ± 2.2e-05 | – | – | – | – | 9.19e-05 ± 4.3e-05 | –
13 | C16U A53G | 0.0256 ± 0.012 | 0.013 ± 0.0042 | – | 0.00111 ± 0.00015 | 0.00153 ± 0.00061 | 0.0112 ± 0.0028 | 0.0282 ± 0.0061
14 | U30C U46G | 3.27e-05 ± 2.8e-06 | – | 5040 ± 1000 | – | – | – | –
15 | G29C U30G | 0.00361 ± 0.0014 | 0.00147 ± 0.00036 | – | 8.92e-05 ± 1.8e-05 | 0.000309 ± 6.9e-05 | 0.00138 ± 0.00041 | 0.00472 ± 0.00086
16 | U30C C70A | 5.42e-05 ± 6.4e-06 | 5.57e-05 ± 1.8e-05 | – | – | 5.93e-05 ± 2.3e-05 | 7.04e-05 ± 2.5e-05 | 4.43e-05 ± 1.5e-05
17 | U30A C58G G59A C70G | 2.1e-05 ± 2.6e-06 | – | – | – | – | – | –

Row | Variant | kcat (glucosamine-6-phosphate [1]) [s⁻¹] | self-cleavage kobs at 2500 uM GlcN6P (glucosamine-6-phosphate [2]) [s⁻¹] | KM (glucosamine-6-phosphate [3]) [µM] | self-cleavage kobs at 40 uM GlcN6P (glucosamine-6-phosphate [4]) [s⁻¹] | self-cleavage kobs at 160 uM GlcN6P (glucosamine-6-phosphate [5]) [s⁻¹] | self-cleavage kobs at 640 uM GlcN6P (glucosamine-6-phosphate [6]) [s⁻¹] | self-cleavage kobs at 10000 uM GlcN6P (glucosamine-6-phosphate [7]) [s⁻¹]
18 | U30A A64G | 0.00654 ± 0.00069 | 0.0035 ± 0.0008 | 1670 ± 240 | 0.000149 ± 2.6e-05 | 0.000656 ± 0.00022 | 0.00193 ± 0.00045 | 0.00607 ± 0.0014
19 | G29U G41C | 4.75e-05 ± 1.3e-05 | – | – | – | – | – | 3.1e-05 ± 9e-06
20 | U30C G62U | < 1e-05 | – | – | – | < 1e-05 | – | < 1e-05
21 | U30C G62A | < 1e-05 | – | – | – | – | < 1e-05 | –
22 | G29C U54G | 0.000894 ± 0.00025 | 0.00051 ± 0.00013 | – | 6e-05 ± 1.7e-05 | – | 0.000289 ± 6.5e-05 | 0.000918 ± 0.00014
23 | G29U A36U | < 1e-05 | < 1e-05 | – | – | – | – | –
24 | G29A U31G | 0.000319 ± 2.2e-05 | 0.000217 ± 3.4e-05 | 1380 ± 180 | – | 3.63e-05 ± 1e-05 | 9.51e-05 ± 1.6e-05 | 0.000272 ± 5.4e-05
25 | U30A A52U | 0.000132 ± 2.2e-05 | 4.37e-05 ± 1.6e-05 | 4380 ± 1900 | < 1e-05 | – | – | 9.26e-05 ± 1.4e-05
26 | G29U U47G | 0.000866 ± 0.00021 | 0.000515 ± 0.00015 | 1600 ± 640 | – | 0.00011 ± 2.1e-05 | 0.000215 ± 3.4e-05 | 0.000787 ± 0.00012
27 | G29A U55A | 0.00461 ± 0.0011 | 0.00332 ± 0.00066 | 1320 ± 440 | 0.000165 ± 2e-05 | 0.000532 ± 9.2e-05 | 0.00123 ± 0.00015 | 0.00456 ± 0.00065
28 | G29A U55G | 0.00132 ± 0.00029 | 0.000622 ± 0.00011 | 2980 ± 960 | – | 5.56e-05 ± 1.3e-05 | 0.000305 ± 6.3e-05 | 0.000954 ± 0.00021
29 | G29U G40U | 0.000422 ± 3.9e-05 | 0.00032 ± 4.6e-05 | 1290 ± 220 | – | 4.21e-05 ± 1.1e-05 | 0.00014 ± 1.5e-05 | 0.000349 ± 4.9e-05
30 | G29A G59U | 1.01e-05 ± 3.5e-06 | – | – | – | – | < 1e-05 | –
31 | G29C U56G | 0.00345 ± 0.0011 | 0.00115 ± 0.00022 | 6770 ± 2600 | – | 7.08e-05 ± 1.4e-05 | 0.000321 ± 6e-05 | 0.00181 ± 0.00049
32 | G29C A53C | 0.000417 ± 2.8e-05 | 0.00029 ± 4.5e-05 | 1380 ± 180 | – | 4.1e-05 ± 1.7e-05 | 0.00013 ± 1.7e-05 | 0.000356 ± 5.1e-05
33 | G29C A53G | 0.00235 ± 0.00053 | 0.000948 ± 0.00014 | 2630 ± 900 | 4.79e-05 ± 7.8e-06 | 0.000154 ± 2.3e-05 | 0.000398 ± 5.6e-05 | 0.00209 ± 0.00021
34 | G29U A52U | 0.000123 ± 1.2e-05 | – | 4620 ± 1400 | – | – | – | 8.41e-05 ± 1e-05
